Reference: the supplement of paper PMC5998384

Legend:
HeLa Kyoto [1] = experiment: solubility change mitosis vs G1/S (difference of NP-40 vs SDS log2 ratios) (log2 ratio difference); higher = more soluble in mitosis
HeLa Kyoto [2] = experiment: thermal stability score vs G1/S (z-score of summed log2 fold changes over temperatures); higher = more thermally stable than in G1/S
HeLa Kyoto [3] = experiment: melting temperature (median over replicates), in situ; higher = more thermally stable
HeLa Kyoto [4] = experiment: solubility in G1/S (NP-40 vs SDS abundance) (log2 ratio); higher = more soluble; conditions: cell cycle stage: G1/S
[5] = cell cycle stage: early G1 (4.5 h after nocodazole release)
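For melting temperature (median over replicates), in situ in this document: HeLa Kyoto cells synchronized by double thymidine or nocodazole block, proteins quantified by TMT10plex mass spectrometry, three independent biological replicates.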
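For solubility change mitosis vs G1/S (difference of NP-40 vs SDS log2 ratios) in this document: synchronized HeLa Kyoto cells (double thymidine block for G1/S, nocodazole release for mitosis), protein amounts in NP-40 versus SDS lysates quantified by mass spectrometry, three biological replicates.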
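For solubility in G1/S (NP-40 vs SDS abundance) in this document: HeLa Kyoto cells arrested at G1/S by double thymidine block, proteins quantified by TMT10plex mass spectrometry in mild NP-40 versus SDS extracts, three biological replicates.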
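For thermal stability score vs G1/S (z-score of summed log2 fold changes over temperatures) in this document: synchronized HeLa Kyoto cells, proteins quantified by TMT10plex mass spectrometry, three biological replicates, mitosis taken 0.5 h after nocodazole release, G1/S directly after double thymidine block.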

Sequence | solubility change mitosis (log2) (HeLa Kyoto [1]) | thermal stability score (HeLa Kyoto [2]; [5]) | thermal stability score (HeLa Kyoto [2]; cell cycle stage: mitosis) | melting temperature (HeLa Kyoto [3]; cell cycle stage: G1/S) [°C] | melting temperature (HeLa Kyoto [3]; cell cycle stage: mitosis) [°C] | solubility in G1/S (log2) (HeLa Kyoto [4])
MEGSLEREAPAGALAAVLKHSSTLPPESTQVRGYDFNRGVNYRALLEAFGTTGFQATNFGRAVQQVNAMIEKKLEPLSQDEDQHADLTQSRRPLTSCTIFLGYTSNLISSGIRETIRYLVQHNMVDVLVTTAGGVEEDLIKCLAPTYLGEFSLRGKELRENGINRIGNLLVPNENYCKFEDWLMPILDQMVMEQNTEGVKWTPSKMIARLGKEINNPESVYYWAQKNHIPVFSPALTDGSLGDMIFFHSYKNPGLVLDIVEDLRLINTQAIFAKCTGMIILGGGVVKHHIANANLMRNGADYAVYINTAQEFDGSDSGARPDEAVSWGKIRVDAQPVKVYADASLVFPLLVAETFAQKMDAFMHEKNED [DHPS] | -0.0341 | -0.0223 | -1.85 | 56.2 | 56.8 | 0.164
MEKFGMNFGGGPSKKDLLETIETQKKQLLQYQARLKDVVRAYKSLLKEKEALEASIKVLSVSHEADVGLAGVQLPGLTFPDSVDDRCSTHSEDSTGTATSLDTAASLTSTKGEFGVEDDRPARGPPPPKSEEASWSESGVSSSSGDGPFAGGEVDKRLHQLKTQLATLTSSLATVTQEKSRMEASYLADKKKMKQDLEDASNKAEEERARLEGELKGLQEQIAETKARLITQQHDRAQEQSDHALMLRELQKLLQEERTQRQDLELRLEETREALAGRAYAAEQMEGFELQTKQLTREVEELKSELQAIRDEKNQPDPRLQELQEEAARLKSHFQAQLQQEMRKTALAEDQLRQQSQVEEQRVAALENQISEVSELLGTYEKAKQKDQLAIQKLKERILQLDLENKTLALAASSRSPLDSHGEESSLDVNVLKDKMEKLKRLLQVAARKSQVTLDVEKLCDLEIMPSSEAADGEKATALYYQQELKQLKEEFERYKMRAQVVLKSKNTKDGNLGKELEAAQEQLAELKEKYISLRLSCEELEHQHQQEADDWKQELARLQQLHRQELERCQLDFRDRTLKLEEELHKQRDRALAVLTEKDLELEQLRSVALASGLPGRRSPVGGGGPGDPADTSSSDSLTQALQLAAANEPTFFLYAEQLARKEVEITSLRKQKHRLEVEVHQLQDRLLEEGERHREEVAALQSHIEKNIRDQSREGANLEYLKNIIYRFLTLPDSLGRQQTLTAILTILHFSPEEKQVIMRLPTSASWWPSGKR [GCC1] | -0.114 | -0.43 | 0.117 | 48.7 | 51.5 | 0.527
MEKILQMAEGIDIGEMPSYDLVLSKPSKGQKRHLSTCDGQNPPKKQAGSKFHARPRFEPVHFVASSSKDERQEDPYGPQTKEVNEQTHFASMPRDIYQDYTQDSFSIQDGNSQYCDSSGFILTKDQPVTANMYFDSGNPAPSTTSQQANSQSTPEPSPSQTFPESVVAEKQYFIEKLTATIWKNLSNPEMTSGSDKINYTYMLTRCIQACKTNPEYIYAPLKEIPPADIPKNKKLLTDGYACEVRCQNIYLTTGYAGSKNGSRDRATELAVKLLQKRIEVRVVRRKFKHTFGEDLVVCQIGMSSYEFPPALKPPEDLVVLGKDASGQPIFNASAKHWTNFVITENANDAIGILNNSASFNKMSIEYKYEMMPNRTWRCRVFLQDHCLAEGYGTKKTSKHAAADEALKILQKTQPTYPSVKSSQCHTGSSPRGSGKKKDIKDLVVYENSSNPVCTLNDTAQFNRMTVEYVYERMTGLRWKCKVILESEVIAEAVGVKKTVKYEAAGEAVKTLKKTQPTVINNLKKGAVEDVISRNEIQGRSAEEAYKQQIKEDNIGNQLLRKMGWTGGGLGKSGEGIREPISVKEQHKREGLGLDVERVNKIAKRDIEQIIRNYARSESHTDLTFSRELTNDERKQIHQIAQKYGLKSKSHGVGHDRYLVVGRKRRKEDLLDQLKQEGQVGHYELVMPQAN [NKRF] | 0.226 | 3.45 | 6.93 | 44.4 | 48 | -0.517
MEKLHQCYWKSGEPQSDDIEASRMKRAAAKHLIERYYHQLTEGCGNEACTNEFCASCPTFLRMDNNAAAIKALELYKINAKLCDPHPSKKGASSAYLENSKGAPNNSCSEIKMNKKGARIDFKDVTYLTEEKVYEILELCREREDYSPLIRVIGRVFSSAEALVQSFRKVKQHTKEELKSLQAKDEDKDEDEKEKAACSAAAMEEDSEASSSRIGDSSQGDNNLQKLGPDDVSVDIDAIRRVYTRLLSNEKIETAFLNALVYLSPNVECDLTYHNVYSRDPNYLNLFIIVMENRNLHSPEYLEMALPLFCKAMSKLPLAAQGKLIRLWSKYNADQIRRMMETFQQLITYKVISNEFNSRNLVNDDDAIVAASKCLKMVYYANVVGGEVDTNHNEEDDEEPIPESSELTLQELLGEERRNKKGPRVDPLETELGVKTLDCRKPLIPFEEFINEPLNEVLEMDKDYTFFKVETENKFSFMTCPFILNAVTKNLGLYYDNRIRMYSERRITVLYSLVQGQQLNPYLRLKVRRDHIIDDALVRLEMIAMENPADLKKQLYVEFEGEQGVDEGGVSKEFFQLVVEEIFNPDIGMFTYDESTKLFWFNPSSFETEGQFTLIGIVLGLAIYNNCILDVHFPMVVYRKLMGKKGTFRDLGDSHPVLYQSLKDLLEYEGNVEDDMMITFQISQTDLFGNPMMYDLKENGDKIPITNENRKEFVNLYSDYILNKSVEKQFKAFRRGFHMVTNESPLKYLFRPEEIELLICGSRNLDFQALEETTEYDGGYTRDSVLIREFWEIVHSFTDEQKRLFLQFTTGTDRAPVGGLGKLKMIIAKNGPDTERLPTSHTCFNVLLLPEYSSKEKLKERLLKAITYAKGFGML [UBE3A] | -0.175 | -0.231 | -0.936 | 52.8 | 52 | -0.0632
MEKTCIDALPLTMNSSEKQETVCIFGTGDFGRSLGLKMLQCGYSVVFGSRNPQKTTLLPSGAEVLSYSEAAKKSGIIIIAIHREHYDFLTELTEVLNGKILVDISNNLKINQYPESNAEYLAHLVPGAHVVKAFNTISAWALQSGALDASRQVFVCGNDSKAKQRVMDIVRNLGLTPMDQGSLMAAKEIEKYPLQLFPMWRFPFYLSAVLCVFLFFYCVIRDVIYPYVYEKKDNTFRMAISIPNRIFPITALTLLALVYLPGVIAAILQLYRGTKYRRFPDWLDHWMLCRKQLGLVALGFAFLHVLYTLVIPIRYYVRWRLGNLTVTQAILKKENPFSTSSAWLSDSYVALGILGFFLFVLLGITSLPSVSNAVNWREFRFVQSKLGYLTLILCTAHTLVYGGKRFLSPSNLRWYLPAAYVLGLIIPCTVLVIKFVLIMPCVDNTLTRIRQGWERNSKH [STEAP4] | -0.115 | -2.95 | -3.54 | 60.3 | 57.7 | -0.0287
MELGSCLEGGREAAEEEGEPEVKKRRLLCVEFASVASCDAAVAQCFLAENDWEMERALNSYFEPPVEESALERRPETISEPKTYVDLTNEETTDSTTSKISPSEDTQQENGSMFSLITWNIDGLDLNNLSERARGVCSYLALYSPDVIFLQEVIPPYYSYLKKRSSNYEIITGHEEGYFTAIMLKKSRVKLKSQEIIPFPSTKMMRNLLCVHVNVSGNELCLMTSHLESTRGHAAERMNQLKMVLKKMQEAPESATVIFAGDTNLRDREVTRCGGLPNNIVDVWEFLGKPKHCQYTWDTQMNSNLGITAACKLRFDRIFFRAAAEEGHIIPRSLDLLGLEKLDCGRFPSDHWGLLCNLDIIL [TDP2] | -0.193 | -0.731 | -0.039 | 49.7 | 51.7 | 0.116
